Source: patent US7919262B2, “14-3-3 proteins for diagnosis of Parkinson's disease” (The UAB Research Foundation, priority 2007, dated 2011)

Legend:
H4 cells = assay: α-syn toxicity assay, adenylate kinase released into the media; assay type: cell-based; conditions: co-transfected with wildtype α-syn; 24 hours after transfection; vs empty vector
Description: Briefly, H4 cells were transfected with wildtype α-syn and each of the 14-3-3 polypeptide isoforms or empty vector controls as discussed above. Twenty-four hours after transfection, cell death was assayed by adenylate kinase activity in the media (n=4, *p<0.05, **p<0.01, ***p<0.001).
Primers against each of the human 14-3-3 isoforms were designed using Primer3. Primers against 14-3-3β (NM_018753) were 5′ […] 3′ (forward; SEQ ID NO. 9) and 5′ […] 3′ (reverse; SEQ ID NO. 10). Primers against 14-3-3ε (NM_009536) were 5′ […] 3′ (forward; SEQ ID NO. 11) and 5′ […] 3′ (reverse; SEQ ID NO. 12). Primers against 14-3-3γ (NM_018871) were 5′ […] 3′ (forward; SEQ ID NO. 13) and 5′ […] 3′ (reverse; SEQ ID NO. 14). Primers against 14-3-3η (NM_011738) were 5′ […] 3′ (forward; SEQ ID NO. 15) and 5′ […] 3′ (reverse; SEQ ID NO. 16). Primers against 14-3-3θ (NM_011739) were 5′ […] 3′ (forward; SEQ ID NO. 17) and 5′ […] 3′ (reverse; SEQ ID NO. 18). Primers against 14-3-3σ (NM_018754) were 5′ […] 3′ (forward; SEQ ID NO. 19) and 5′ […] 3′ (reverse; SEQ ID NO. 20). Primers against 14-3-3ζ(NM_011740) were 5′ […] 3′ (forward; SEQ ID NO. 21) and 5′ […] 3′ (reverse; SEQ ID NO. 22). Primers against GAPDH were 5′ tggtgaagcaggeatctga 3′ (forward; SEQ ID NO. 23) and 5′ […] […] All cells stained for α-syn were scored as positive or negative for α-syn aggregates, with the rater blind to experimental condition. • α-syn toxicity assay H4 cells were transfected with α-syn and either empty vector control or a 14-3-3 isoform using Superfect transfection reagent (Qiagen). 24 hours after transfection, toxicity was measured by the amount of adenylate kinase released into the media using the ToxiLight™ kit (Cambrex). • Creation of stable cell lines Each 14-3-3 isoform was subcloned into the mammalian expression vector mcDNA3.1/V5-His (Invitrogen). […] Protein concentrations of supernatants were determined by the bicinchoninic acid assay (BCA; Pierce, Rockford, Ill.). […]

[1] = system: SK-N-BE(2)-M17 (M17) cells; assay: Rotenone toxicity in stably transfected cell lines, LDH release; assay type: cell-based; conditions: stable overexpression, 48 hours; for protection against rotenone toxicity (LDH release): rotenone at varying concentrations
Description: Cell lines stably-transfected with either 14-3-3θ or empty vector were treated with varying concentrations of rotenone (0-25 μM) for 24 hours (FIG. 6A), 30 hours (FIG. 6B), or 48 hours (FIG. 6C). Cell death was assayed by LDH release into the culture media. LDH release into media was normalized to total LDH release for each well. […] Rater was blind to experimental condition. n=8 for each experimental condition. *p<0.05, ***p<0.001 (Bonferroni's multiple comparison test).
(§1) M17 cell lines stably-transfected with either a 14-3-3 isoform or empty vector were treated with varying concentrations of rotenone (0-25 μM) for 48 hours. Cell death was assayed by LDH release into the culture media. LDH release into media was normalized to total LDH release for each well. […] Results reflect two to three independent experiments with at least two replicates per experiment. *p<0.05, **p<0.01, ***p<0.001 (Bonferroni's multiple comparison test).
Additional studies were performed to evaluate the effect of 14-3-3 polypeptide isoforms in mammalian cells. In these studies, cDNA clones for the 14-3-3 polypeptide β, γ, ε, η, θ, and σ isoforms were subcloned into the mammalian expression vector pcDNA 3.1/V5/His (Invitrogen). The polypeptide expressed from this vector contains the particular 14-3-3 isoform with a V5 and a His6 tag at the C-terminal end. […] SK-N-BE(2)-M17 (M17) cells, a dopaminergic-producing human neuroblastoma cell line, were transfected with each isoform or empty vector using Superfect, and stably-transfected cells were selected for in the presence of G418.
The M17 14-3-3θ clones were examined for their resistance to rotenone (0-25 μM). M17 cell lines stably transfected with either 14-3-3θ or empty vector were treated with rotenone for 24 (FIG. 6A), 30 (FIG. 6B) or 48 hours (FIG. 6C). Cell death was assayed by […] (LDH) release into the culture media using the LDH assay kit from Roche. LDH release into media was normalized to total LDH release for each well. Results reflect three independent experiments with at least two replicates per experiment.
Stable M17 cell lines overexpressing these other isoforms were treated with rotenone at varying concentrations, and then cell death was assayed at 48 hours by LDH release. […]

M17 cells = assay: MPP+ toxicity in stably transfected cell lines, LDH release; assay type: cell-based, human; conditions: stable overexpression; MPP+ 0-10 mM; 24 hours
Description: as §1, with “Cell” for “M17 cell”, “MPP+” for “rotenone (0-25 μM)”, “24” for “48”, “well. Lines overexpressing 14-3-3θ (FIG. 9A), 14-3-3ε (FIG. 9B), or 14-3-3γ (FIG. 9C) were more resistant to MPP+ in a dose-dependent manner compared to control stable cells.” for “well.”, “experiment.” for “experiment. *p<0.05,”
The 14-3-3 expressing M17 clones were also tested for resistance to the neurotoxin 1-methyl-4-phenylpyridinium ion (MPP+), which is a metalbolite of 1-methyl-4-phenyl-1,2,3,6-tetrahydropyridine (MPTP). M17 cells expressing the 14-3-3 isoforms were prepared as described. M17 cells were treated with MPP+ (0-10 mM) for 24 hours (FIGS. 9A-G). Cell death was assayed by LDH release into the culture media as described above.
Primers against each of the human 14-3-3 isoforms were designed using Primer3. Primers against 14-3-3β (NM_018753) were 5′ […] 3′ (forward; SEQ ID NO. 9) and 5′ […] 3′ (reverse; SEQ ID NO. 10). Primers against 14-3-3ε (NM_009536) were 5′ […] 3′ (forward; SEQ ID NO. 11) and 5′ […] 3′ (reverse; SEQ ID NO. 12). Primers against 14-3-3γ (NM_018871) were 5′ […] 3′ (forward; SEQ ID NO. 13) and 5′ […] 3′ (reverse; SEQ ID NO. 14). Primers against 14-3-3η (NM_011738) were 5′ […] 3′ (forward; SEQ ID NO. 15) and 5′ […] 3′ (reverse; SEQ ID NO. 16). Primers against 14-3-3θ (NM_011739) were 5′ […] 3′ (forward; SEQ ID NO. 17) and 5′ […] 3′ (reverse; SEQ ID NO. 18). Primers against 14-3-3σ (NM_018754) were 5′ […] 3′ (forward; SEQ ID NO. 19) and 5′ […] 3′ (reverse; SEQ ID NO. 20). Primers against 14-3-3ζ(NM_011740) were 5′ […] 3′ (forward; SEQ ID NO. 21) and 5′ […] 3′ (reverse; SEQ ID NO. 22). Primers against GAPDH were 5′ tggtgaagcaggeatctga 3′ (forward; SEQ ID NO. 23) and 5′ […] 3′ (reverse; SEQ ID NO. 24) and were used to normalize PCR results. • α-syn aggregation assay H4 cells were transfected with synphilin, α-syn/green fluorescent protein (synT), and either empty vector control or a 14-3-3 isoform using Superfect transfection reagent (Qiagen). 24 hours after transfection, cells were fixed with 4% paraformaldehyde and immunostained with a monoclonal antibody against α-syn (BD Transduction) and a secondary Alexa 488-conjugated goat anti-mouse antibody (Molecular Probes). All cells stained for α-syn were scored as positive or negative for α-syn aggregates, with the rater blind to experimental condition. • α-syn toxicity assay H4 cells were transfected with α-syn and either empty vector control or a 14-3-3 isoform using Superfect transfection reagent (Qiagen). 24 hours after transfection, toxicity was measured by the amount of adenylate kinase released into the media using the ToxiLight™ kit (Cambrex). • Creation of stable cell lines Each 14-3-3 isoform was subcloned into the mammalian expression vector mcDNA3.1/V5-His (Invitrogen). BE(2)-M17 cells were transfected with each isoform or empty vector using Superfect, and stably-transfected cells were selected for in the presence of G418. […] Protein concentrations of supernatants were determined by the bicinchoninic acid assay (BCA; Pierce, Rockford, Ill.). […]

Molecule | effect on α-syn dependent cell death (adenylate kinase activity in the media) (H4 cells) | protection against rotenone toxicity (LDH release) [1] | rotenone-induced cell death, % of that in control cells ([1]; 1 μM rotenone, LDH release) [%] | protection against MPP+ toxicity (LDH release) (M17 cells)
14-3-3σ: 14-3-3 polypeptide σ isoform, overexpressed from expression vector (protein, UniProt P31947 1-248, looked up) 14-3-3 protein sigma: MERASLIQKAKLAEQAERYEDMAAFMKGAVEKGEELSCEERNLLSVAYKNVVGGQRAAWRVLSSIEQKSNEEGSEEKGPEVREYREKVETELQGVCDTVLGLLDSHLIKEAGDAESRVFYLKMKGDYYRYLAEVATGDDKKRIIDSARSAYQEAMDISKKEMPPTNPIRLGLALNFSVFHYEIANSPEEAISLAKTTFDEAMADLHTLSEDSYKDSTLIMQLLRDNLTLWTADNAGEEGGEAPQEPQS | protective effects | did not provide any protection |  | 
14-3-3β: 14-3-3 polypeptide β isoform, overexpressed from expression vector (protein, UniProt P31946 1-246, looked up) 14-3-3 protein beta/alpha: MTMDKSELVQKAKLAEQAERYDDMAAAMKAVTEQGHELSNEERNLLSVAYKNVVGARRSSWRVISSIEQKTERNEKKQQMGKEYREKIEAELQDICNDVLELLDKYLIPNATQPESKVFYLKMKGDYFRYLSEVASGDNKQTTVSNSQQAYQEAFEISKKEMQPTHPIRLGLALNFSVFYYEILNSPEKACSLAKTAFDEAIAELDTLNEESYKDSTLIMQLLRDNLTLWTSENQGDEGDAGEGEN |  | some protection | 75 | did not show any significant protection
14-3-3η: 14-3-3 polypeptide η isoform, overexpressed from expression vector (protein, UniProt Q04917 2-246, looked up) 14-3-3 protein eta: GDREQLLQRARLAEQAERYDDMASAMKAVTELNEPLSNEDRNLLSVAYKNVVGARRSSWRVISSIEQKTMADGNEKKLEKVKAYREKIEKELETVCNDVLSLLDKFLIKNCNDFQYESKVFYLKMKGDYYRYLAEVASGEKKNSVVEASEAAYKEAFEISKEQMQPTHPIRLGLALNFSVFYYEIQNAPEQACLLAKQAFDDAIAELDTLNEDSYKDSTLIMQLLRDNLTLWTSDQQDEEAGEGN |  | did not provide any protection |  | 
